The test system of data set [1] is CT26 murine colon carcinoma. Nature of the data set: CT26 syngeneic murine colon carcinoma model. The class given is in vivo, Balb/c mice. An excerpt: Animal models. […] Balb/C mice aged 4 to 6 weeks from the breeding colony were inoculated with 500,000 syngeneic CT26 tumor cells per site subcutaneously in the back. […] Treatment was repeated at 2 day intervals. The human 293 tumor models were generated in WEHI nude mice (The Scripps Research Institute breeding colony). […] Tumor growth and physical signs were monitored daily including any gross evidence of tumor necrosis, local tumor ulceration as well as evidence of toxicity including mobility, response to stimulus, eating, and weight of each animal. These procedures have been reviewed and approved by the Institutional Animal Care and Use Committee at The Scripps Research Institute. The work was conducted in The Scripps Research Institute facilities which are accredited by the Association for the Assessment and Accreditation of Laboratory Animal Care. The Scripps Research Institute maintains an assurance with the Public Health Service, is registered with the United States Department of Agriculture and is in compliance with all regulations relating to animal care and welfare.
Animal models. […] Treatment was three times per week for two weeks.

The next data set concerns the target legumain (Homo sapiens, UniProt Q99538). Nature of the data set: cleavage of LEG compounds by legumain. It is filed as biochemical.
The nature of data set [2]: gross toxicity (weight loss, death) of treated mice. It is filed as in vivo. The procedure:
Tumor growth and signs of physical discomfort were monitored daily. Such signs included any gross evidence of tumor necrosis, local tumor ulceration as well as evidence of toxicity including changes in the animal's mobility, response to stimulus, piloerection, eating, and weight. These procedures have been reviewed and approved by the Institutional Animal Care and Use Committee at The Scripps Research Institute. All the experiments were conducted in The Scripps Research Institute facilities which are accredited by the Association for the Assessment and Accreditation of Laboratory Animal Care. The Scripps Research Institute maintains an assurance with the Public Health Service, and is registered with the United States Department of Agriculture and is in compliance with all regulations relating to animal care and welfare.

In the next data set the test system is cardiac myocytes. The following applies: for apoptosis of cardiac myocytes (TUNEL): treated mice.
Data set [3] is described as follows: plasma pharmacokinetics in mice bearing CT26 tumors. The following applies: single intravenous bolus, MTD of Dox and molar equivalent of LEG-3, CT26 tumor mice.
Data set [4] is described as follows: tissue distribution in mice bearing CT26 colon carcinomas. The class given is in vivo. The following applies: twelve hours post injection. How it is done: Tissue distribution. LEG compounds or Dox was injected i.p. into mice, 12 h later the animals were perfused and the Dox autofluorescence was measured following homogenization in 50% ethanol and then diluted with an equal volume of 50% ethanol containing 0.6 M HCl. Fluorescence measurements were obtained with excitation at 470 nm and emission at 590 nm, concentrations were derived by conversion from a Dox standard curve. Tissues from saline injected mice provided controls. Blood samples were to 0.75 ml with PBS, centrifuged, the pellets washed with PBS and Dox extracted with ethanol, 0.3 M HCl.
Legumain is selectively functional in the tumor microenvironment.

Data set [5] relates to control 293 cells. Nature of the data set: Dox and LEG-3 uptake assay, cells not expressing legumain. The procedure: Dox and LEG-3 uptake assay. Legumain^+ 293 cells or control 293 cells (2.5×10^5 cells/well) were seeded in six-well plates. The culture plates were then incubated for 24 h at 37° C. and 5% CO2, and the medium in each well was replaced with 2 ml of serum-free, antibiotic-free medium containing various concentrations of Dox or LEG-type prodrug compounds. The cells were incubated 1.5 h then washed three times with 2 ml of cold PBS. At this point, cell nuclear positivity for Dox could be analyzed by fluorescent microscopy. For quantitative assays the cells were then lysed by adding 0.5 ml of water and gently rotated on an orbital shaker for 5 min at room temperature. The lysed cells were added to 1.5 ml acidified ethanol, and incubated at 4° C. in the dark for 3 h. Total Dox and LEG content was measured fluorometrically using a Perkin-Elmer LS-50-B spectrofluorometer (excitation: 470 nm; emission: 590 nm). Fluorescence intensity was translated to drug concentration by use of a standard curve prepared from Dox and LEG solutions in cell lysates that were not previously exposed to the drug. Results are expressed as the mean±SD of at least three replicates for each experiment.

A short description of the next data set: in vivo. More on the design: species or system Balb/c male mice. The settings on record: male, Balb/c, mouse.
Data set [6] has as its system peripheral blood leukocytes. Nature of the data set: marrow toxicity, peripheral blood leukocyte counts. The class given is in vivo, Balb C mice. The settings on record: six times in twelve days. The procedure:
Determination of marrow toxicity. […] On day 7, retro-orbital sinus blood samples were collected into 10 mM EDTA, and counted by hemocytometer after lysis of red blood cells with an acidified methyl violet solution.

For data set [7], the system named is legumain expressing cells. Nature of the data set: Dox and LEG-3 uptake assay, legumain expressing cells. The class given is cell-based, human. The settings on record: legumain expressing cells in culture. An excerpt: Dox and LEG-3 uptake assay.
The conditions of data set [8]: mouse, in vivo, iv.
Data set [9] relates to control 293 cells. Nature of the data set: WST-1 cytotoxicity assay, control 293 cells. The following applies: Homo sapiens, HEK293, 48 h. How it is done: (§1) Cytotoxic assays. The WST-1 cell proliferation reagent (Roche Molecular Chemicals, Germany) was used to determine cell proliferation by quantification of cellular metabolic activity. Control 293 cells and legumain+ 293 cells were cultivated in microtiter plates (5×10^3 cells per well in 100 μl) and were incubated with serial concentrations of legubicin or doxorubicin for 48 h. Subsequently, 10 μl of WST-1 solution (1 mg/ml WST-1, 25 μM -methyldibenzopyrazine methyl sulfate) was added per well, and mixtures were incubated for an additional 4 h. The tetrazolium salt WST-1 (4-[3-(4-lodophenyl)-2-(4-nitrophenyl)-2H-5-tetrazolio-1,3-benzene disfonate) was cleaved by the mitochondrial succinate-tetrazolium-reductase system to formazan in cells which directly correlates to the number of metabolically viable cells in the culture. The amount of formazan salt was quantified in three replicates by absorbance at 450 nm using a micro-plate reader (Molecular Devices, Palo Alto, Calif.).
(§2) Cytotoxicity assays. The WST-1 cell proliferation reagent (Roche Molecular Chemicals, Germany) was used to determine cell proliferation by quantization of cellular metabolic activity. […] The amount of formazan salt was quantified in three replicates by absorbance at 450 nm using a micro-plate reader (Molecular Devices, Palo Alto, Calif.).

Another data set relates to legumain+ 293 cells. The data set is described as follows: WST-1 cytotoxicity assay, legumain+ 293 cells. How it is done:
as §1, §2
On the technique in general: Tetrazolium dyes change colour on reduction, which living cells bring about.

The test system of a further data set is HTP cells. Nature of the data set: WST-1 cytotoxicity assay, HTP cells. The class given is cell-based. The following applies: 50% cell death, 48 h.

Each structure is given as a SMILES string. Where two headings read alike, the source gives them in different places. Numbered stars: 1 amine (or outer) side, 2 acyl side, 3 side chain; on linkers, the order of the positions; unused ones are H or OH. Peptide text beside a SMILES is read from it. * marks the point of attachment. Doxorubicin(3'-N) = COc1cccc2c1C(=O)c1c(O)c3c(c(O)c1C2=O)C[C@@](O)(C(=O)CO)C[C@@H]3O[C@H]1C[C@H](N*)[C@H](O)[C@H](C)O1; Suc = O=C(CCC(=O)[*:2])[*:1] Bounds are passed on as bounds.

Sequence of legumain (Q99538 18-323, species assumed): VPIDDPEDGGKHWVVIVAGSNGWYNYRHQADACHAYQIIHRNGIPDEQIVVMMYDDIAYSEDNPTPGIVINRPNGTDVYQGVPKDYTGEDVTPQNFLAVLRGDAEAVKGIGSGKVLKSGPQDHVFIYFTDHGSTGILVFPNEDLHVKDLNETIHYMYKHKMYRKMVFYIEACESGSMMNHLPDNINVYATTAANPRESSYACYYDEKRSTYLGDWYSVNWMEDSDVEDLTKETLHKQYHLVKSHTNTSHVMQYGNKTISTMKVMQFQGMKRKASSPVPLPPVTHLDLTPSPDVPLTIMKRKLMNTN
Method for HTP cells: Cytotoxicity assays. The WST-1 cell proliferation reagent (Roche Molecular Chemicals, Germany) was used to determine cell proliferation by quantization of cellular metabolic activity. […] Subsequently, 10 μl of WST-1 solution (1 mg/ml WST-1, 25 μM -methyldibenzopyrazine methyl sulfate) was added per well, and mixtures were incubated for an additional 4 h. The tetrazolium salt WST-1 (4-[3-(4-Iodophenyl)-2-(4-nitrophenyl)-2H-5-tetrazolio-1,3-benzene disfonate) was cleaved by the mitochondrial succinate-tetrazolium-reductase system to formazan in cells in direct correlation with the number of metabolically viable cells in the culture. The amount of formazan salt was quantified in three replicates by absorbance at 450 nm using a micro-plate reader (Molecular Devices, Palo Alto, Calif.). All results were derived from replicate experiments with similar results.

For the compound `COc1cccc2c1C(=O)c1c(O)c3c(c(O)c1C2=O)C[C@@](O)(C(=O)CO)C[C@@H]3O[C@H]1C[C@H](NC(=O)[C@H](CC(C)C)NC(=O)[C@H](CC(N)=O)NC(=O)[C@@H](NC(=O)CCNC(=O)CCC(=O)O)[C@@H](C)O)[C@H](O)[C@H](C)O1` [LEG-2, N-Succinyl-β-alanyl-L-threoinyl-L-Asparaginyl-L-Leucyl-Doxorubicin], the “in vivo tumoricidal activity” value in data set [1] (mice bearing CT26 tumors) was “demonstrable in vivo tumoricidal efficacy”. Besides, the cleavage by legumain result on legumain is “are cleaved by legumain”.
For the compound `COc1cccc2c1C(=O)c1c(O)c3c(c(O)c1C2=O)C[C@@](O)(C(=O)CO)C[C@@H]3O[C@H]1C[C@H](NC(=O)[C@H](CC(C)C)NC(=O)[C@H](CC(N)=O)NC(=O)[C@H](C)NC(=O)[C@H](C)NC(=O)CCC(=O)O)[C@H](O)[C@H](C)O1` [LEG-3] (Suc-AANL-{Doxorubicin(3'-N)}), the “Average weight loss (%)” value is on record as 3% in data set [2] (Dose 1.97 μmol/kg); 5% in data set [2] (Dose 4.9 μmol/kg); 7% in [2] (Dose 49.4 μmol/kg); 8% in data set [2] (Dose 98.7 μmol/kg); 16% in data set [2] (Dose 197.4 μmol/kg). The “Death (%)” value stood at 0% in data set [2] (Dose 1.97 μmol/kg); 0% in [2] (Dose 4.9 μmol/kg); 0% in data set [2] (Dose 49.4 μmol/kg); 10% in data set [2] (Dose 98.7 μmol/kg); 50% in data set [2] (Dose 197.4 μmol/kg). Moreover, the “toxicity based on weight loss and mortality” value in data set [2] (xenograft bearing mice (FIG. 13E)) is reported as “negligible”. Moreover, the “histological evidence of cardiac toxicity” value in the data set with cardiac myocytes (49.4 μmol/kg) is reported as “no histological evidence of cardiac toxicity”. In addition, in the data set on cardiac myocytes, the “apoptosis of cardiac myocytes (TUNEL)” value was “not observed”. Further, the “decline of plasma concentration” value in data set [3] is recorded as “much slower”. For the same compound, in data set [4], the “concentrations in cardiac, liver, kidney, spleen and lung tissues compared to Dox” value is reported as “reduced”. Further, the “content in tumor tissues relative to Dox” value in [4] (CT26 tumors) was “more than 10 fold”. The values for the cell uptake result (in the data set with control 293 cells [5] (cell cultures not expressing legumain); in data set [7]) were “remained extracellular” and “the end product Dox was found in cells”, respectively. Also, the LD50 in the data set “in vivo” (ip) and in the data set “in vivo” (iv) was more than 197 µmol/kg in each case. Moreover, the MTD in the data set “in vivo” (ip) and in the data set “in vivo” (iv) was more than 197 µmol/kg each time. The LD50 – broadly, the dose expected to kill half of the subjects tested – at 5 days in “in vivo” (ip, i.p. 5×) was more than 197 µmol/kg; in the data set “in vivo” (iv, i.v. 5×) it was 197 µmol/kg. In addition, the MTD at 5 days in “in vivo” (ip, i.p. 5×) was found to be 98.7 µmol/kg; in “in vivo” (iv, i.v. 5×) it was 74 µmol/kg. The “reduction of total WBC counts” value is reported as “no reductions” in data set [6] (4.94 μmol/kg) and “only a slight reduction” in [6] (10-fold higher dose than 4.94 μmol/kg).
In the case of `COc1cccc2c1C(=O)c1c(O)c3c(c(O)c1C2=O)C[C@@](O)(C(=O)CO)C[C@@H]3O[C@H]1C[C@H](N)[C@H](O)[C@H](C)O1` [Dox, doxorubicin, reference compound], the “Average weight loss (%)” value in [2] (Dose 1.72 μmol/kg) was 24%; in data set [2] (Dose 5.4 μmol/kg), 28%. Also, the “Death (%)” value in [2] (Dose 1.72 μmol/kg) turned out to be 35%; in data set [2] (Dose 5.4 μmol/kg), 75%. The anti-tumor efficacy entry in data set [1] (doses approaching its maximum tolerable dose (MTD)) is “failed to produce similar anti-tumor efficacy”. Moreover, the toxicity result in [1] (i.p. 5 mg/kg three times at 2 day intervals) is recorded as “fatal”. Moreover, the “decline of plasma concentration” value in [8] is “very rapidly declined”. Moreover, the half-maximal effective concentration (EC50) (as a rule, the midpoint of the concentration-response curve) with control 293 cells [9] worked out at 1200 nM; in the data set on HTP cells it was 1500 nM. The “apoptosis of cardiac myocytes (TUNEL)” value in the data set with cardiac myocytes was “marked apoptosis”. Also, the “cytotoxic effect on legumain+ 293 cells” value with legumain+ 293 cells is “only slightly more resistant”. For the same compound, the cell uptake entry with control 293 cells [5] is on record as “rapidly entered cells”. Besides, the LD50 in the data set “in vivo” (ip) is 17.2 µmol/kg; in the data set “in vivo” (iv), 25.8 µmol/kg. Further, the MTD in “in vivo” (ip) is 9.8 µmol/kg; in “in vivo” (iv) it was 18.2 µmol/kg. In addition, the LD50 at 5 days in the data set “in vivo” (ip, i.p. 5×) turned out to be 3.4 µmol/kg; in “in vivo” (iv, i.v. 5×) it was 5.1 µmol/kg. Further, the MTD at 5 days in the data set “in vivo” (ip, i.p. 5×) was 2.8 µmol/kg; in “in vivo” (iv, i.v. 5×), 3.2 µmol/kg.

(Values after patent US20110300147A9, “Inhibiting tumor cell invasion, metastasis and angiogenesis” (The Scripps Research institute, priority 2005, published 2011).)
